B1: AMMO1 containing a Q1N heavy chain mutation (antibody, V domains shown)
VH: NVQLVQSGADVKKPGASVKVSCKASGYTFIHFGISWVRQAPGQGLEWMGWIDTNNGNTNYAQSLQGRVTMTTDTSTGTAYMELRSLSTDDTAVYFCARALEMGHRSGFPFDYWGQGVLVTVSP
VL: SYELTQPPSVSVAPGQRATITCGGHNIGAKNVHWYQQKPGQAPVLVIQYDSDRPSGIPERFSGSNSGSTATLTISRVEAGDEADYYCQVWDSGRGHPLYVFGGGTKVTVL
B2: AMMO1 Fab (Fab, V domains shown)
VH: QVQLVQSGADVKKPGASVKVSCKASGYTFIHFGISWVRQAPGQGLEWMGWIDTNNGNTNYAQSLQGRVTMTTDTSTGTAYMELRSLSTDDTAVYFCARALEMGHRSGFPFDYWGQGVLVTVSP
VL: SYELTQPPSVSVAPGQRATITCGGHNIGAKNVHWYQQKPGQAPVLVIQYDSDRPSGIPERFSGSNSGSTATLTISRVEAGDEADYYCQVWDSGRGHPLYVFGGGTKVTVL
modifications: not checked

Tests used:
[1] = target: EBV gH/gL heterodimer, recombinant ectodomain (Epstein Barr virus); assay: BLI kinetics, pH 7.4, ligand AMMO1Q1NHC Mab, analyte gH/gL; KD M x10^-9
[2] = target: EBV gH/gL heterodimer, recombinant ectodomain (Epstein Barr virus); assay: BLI kinetics, pH 7.4, ligand AMMO1Q1NHC Mab, analyte gH/gL; koff (1/s) x10^-3
[3] = target: EBV gH/gL heterodimer, recombinant ectodomain (Epstein Barr virus); assay: BLI kinetics, pH 7.4, ligand AMMO1Q1NHC Mab, analyte gH/gL; KA M^-1 x10^7
[4] = target: EBV gH/gL heterodimer, recombinant ectodomain (Epstein Barr virus); assay: BLI kinetics, pH 7.4, ligand AMMO1Q1NHC Mab, analyte gH/gL; kon (1/Ms) x10^5
[5] = target: T1, EBV gH/gL heterodimer, recombinant ectodomain (Epstein Barr virus); assay: BLI kinetics, pH 7.4, ligand gH/gL, analyte AMMO1 Fab; KD M x10^-9
[6] = target: T1, EBV gH/gL heterodimer, recombinant …; assay: BLI kinetics, pH 7.4, ligand gH/gL, analyte AMMO1 Fab; KA M^-1 x10^7

Binder	Kd [1] [nM]	koff [2] [s⁻¹]	Ka [3] [M⁻¹]	kon [4] [M⁻¹ s⁻¹]	Kd [5] [nM]	Ka [6] [M⁻¹]
B1	0.16	3.85e-05	6.34e+09	244000		
B2					0.12	8.12e+09

Source: patent publication US20200164059A1
